In assay [1] the target is T1, human CDH17 protein fragment, domain 1–3 (Homo sapiens, UniProt Q12864).
T1 construct: cadherin 17 (CDH17), human, domain 1–3; also called cadherin 17; CDH17 antigen; source: E. coli BL21(DE3), purified (Ni-NTA, gel filtration)
The assay can be described thus: SPR; affinity determination of nanobodies against human and murine CDH17 proteins. The note with it: both partners purified. (In general: In SPR one partner is held on a chip, and binding of the other changes the refractive index at the surface.)

Assay [2] deals with T2, murine CDH17 protein fragment, domain 1–3 (Mus musculus, UniProt Q9R100).
T2 construct: cadherin 17 (CDH17), mouse, domain 1–3; also called mouse CDH17; source: E. coli BL21(DE3), purified (Ni-NTA, gel filtration)
The assay is described as above. The settings on record: both partners purified.

Changes are numbered by the printed parent chain.

T2 sequence (Q9R100 whole entry, looked up, the tested form may be a part): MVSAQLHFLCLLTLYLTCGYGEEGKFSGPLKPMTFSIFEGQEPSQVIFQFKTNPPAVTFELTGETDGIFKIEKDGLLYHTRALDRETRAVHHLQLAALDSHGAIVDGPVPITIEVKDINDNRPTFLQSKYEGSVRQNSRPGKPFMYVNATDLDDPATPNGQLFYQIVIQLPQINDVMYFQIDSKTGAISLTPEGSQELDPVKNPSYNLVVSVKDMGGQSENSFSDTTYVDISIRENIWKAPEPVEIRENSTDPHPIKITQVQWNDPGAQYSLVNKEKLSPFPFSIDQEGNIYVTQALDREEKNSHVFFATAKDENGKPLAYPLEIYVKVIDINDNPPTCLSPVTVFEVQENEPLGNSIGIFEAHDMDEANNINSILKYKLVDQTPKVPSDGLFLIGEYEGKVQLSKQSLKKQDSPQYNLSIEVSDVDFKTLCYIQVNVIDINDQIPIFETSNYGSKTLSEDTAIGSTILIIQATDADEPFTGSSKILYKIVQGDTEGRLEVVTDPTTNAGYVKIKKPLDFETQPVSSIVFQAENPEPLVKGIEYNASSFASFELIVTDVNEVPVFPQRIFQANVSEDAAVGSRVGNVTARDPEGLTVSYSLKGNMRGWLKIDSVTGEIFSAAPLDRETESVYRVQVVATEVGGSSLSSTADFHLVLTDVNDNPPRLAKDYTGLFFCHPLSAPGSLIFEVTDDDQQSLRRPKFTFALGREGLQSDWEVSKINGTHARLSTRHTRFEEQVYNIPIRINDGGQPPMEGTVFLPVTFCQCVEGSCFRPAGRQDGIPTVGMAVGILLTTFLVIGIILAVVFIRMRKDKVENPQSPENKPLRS
T1 sequence (Q12864 whole entry, looked up, the tested form may be a part): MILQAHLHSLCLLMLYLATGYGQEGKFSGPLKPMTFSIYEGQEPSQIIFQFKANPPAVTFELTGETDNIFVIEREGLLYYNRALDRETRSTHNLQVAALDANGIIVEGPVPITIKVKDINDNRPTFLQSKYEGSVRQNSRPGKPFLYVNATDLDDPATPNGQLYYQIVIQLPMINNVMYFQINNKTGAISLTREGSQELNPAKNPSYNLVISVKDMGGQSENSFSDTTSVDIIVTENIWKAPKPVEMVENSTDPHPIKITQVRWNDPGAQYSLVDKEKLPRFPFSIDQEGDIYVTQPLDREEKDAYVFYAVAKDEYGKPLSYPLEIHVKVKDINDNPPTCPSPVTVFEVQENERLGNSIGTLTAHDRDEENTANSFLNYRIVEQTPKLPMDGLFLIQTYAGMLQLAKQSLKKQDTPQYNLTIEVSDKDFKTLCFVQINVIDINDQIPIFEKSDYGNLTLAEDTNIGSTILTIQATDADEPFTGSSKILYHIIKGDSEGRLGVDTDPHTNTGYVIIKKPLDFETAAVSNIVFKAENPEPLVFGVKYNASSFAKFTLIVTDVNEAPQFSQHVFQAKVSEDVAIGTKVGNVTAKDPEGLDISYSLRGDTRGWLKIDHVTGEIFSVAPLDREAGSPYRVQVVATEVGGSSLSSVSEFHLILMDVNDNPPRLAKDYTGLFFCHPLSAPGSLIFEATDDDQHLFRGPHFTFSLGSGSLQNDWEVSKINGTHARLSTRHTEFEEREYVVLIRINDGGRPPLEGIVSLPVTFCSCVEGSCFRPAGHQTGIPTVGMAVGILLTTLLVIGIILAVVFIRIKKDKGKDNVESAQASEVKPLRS

B1: CDH17 nanobody Nb535 (VHH)
VHH: AVQLVESGGGLVQPGGSLRLSCAASGRTFSSNGMGWFRQAPGKGREFVAAISWNAGTTLYTDSVKGRFTISRDNAKNTVYLQMNSLKPEDTAIYYCAAREYYGGSYYPSREYEYGYWGQGTQVTVSS
notes: source: prokaryotic vector pColdII (TAKARA), purified (Ni-NTA); not shown: HA, C-terminal, kept
As a reminder, the Kd is the equilibrium constant for the complex coming apart. Higher therefore signals weaker binding. For B1, the Kd was 60.1 nM in assay [1] and 109 nM in assay [2].

B2: CDH17 nanobody Nb289 (VHH)
VHH: B1 VHH with P14A, G16D, K43T
notes: as the VHH of m5 (A1) with one amino acid difference at position 44; also called Nb289 nanobody; source: prokaryotic vector pColdII (TAKARA), purified (Ni-NTA); not shown: HA, C-terminal, kept
For B2, the Kd in assay [1] is 20.1 nM; in assay [2], 32.5 nM.
